Experimental data reported in patent publication US7919462B2, “Inhibitors of human plasmin derived from the Kunitz domains” (Dyax Corp., priority 1994, dated 2011).
pKd, pKi: −log10 of the molar value. Several values for one entry are separate records, joined by “and”; a condition that tells them apart may be missing. Equal entries are not always repeated. Where two headings read alike, the source gives them in different places. Blank lines part the entries; values can stand above or below the substance they belong to. Bridges are numbered along the chain shown (N, C = ends). Where no end group is shown, it is not given here.

Assays:
plasmin [1] = target: T1, plasmin (Homo sapiens, UniProt P00747); assay: Binding of display phage (KuDom on M13 gIIIp) to plasmin beads; settings: in words
plasmin [2] = target: T1, plasmin; assay: Inhibition of plasmin hydrolysis of succinyl-Ala-Phe-Lys-(F3Ac)AMC, tight-binding fit (Ki used as KD); type: biochemical
Text: A second appropriate method of measuring KD is to measure the inhibitory activity against the enzyme. […] Here, we use the measured Ki as a direct measure of KD.
Inhibition of hydrolysis of succinyl-Ala-Phe-Lys-(F3Ac)AMC (a methyl coumarin) (Sigma Chemical, St. Louis, Mo.) by plasmin at 2.5×10^−8 M with varying amount of inhibitor were fit to the standard form for a tight-binding […] by least-squares.

plasmin [3] = target: T1, plasmin; settings: cited from earlier work; for pKd: Table 4, plasmin, read-out: Affinity KD

T1 sequence (P00747 581-810 limits assumed): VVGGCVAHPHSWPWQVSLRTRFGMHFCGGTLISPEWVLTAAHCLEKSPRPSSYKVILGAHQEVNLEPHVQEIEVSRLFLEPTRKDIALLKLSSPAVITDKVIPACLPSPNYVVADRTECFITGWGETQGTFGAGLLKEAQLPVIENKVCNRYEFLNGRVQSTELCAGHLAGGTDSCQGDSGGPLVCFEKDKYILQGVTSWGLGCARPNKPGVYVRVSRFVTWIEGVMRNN
T1 sequence (P00747 97-580 partner limits assumed): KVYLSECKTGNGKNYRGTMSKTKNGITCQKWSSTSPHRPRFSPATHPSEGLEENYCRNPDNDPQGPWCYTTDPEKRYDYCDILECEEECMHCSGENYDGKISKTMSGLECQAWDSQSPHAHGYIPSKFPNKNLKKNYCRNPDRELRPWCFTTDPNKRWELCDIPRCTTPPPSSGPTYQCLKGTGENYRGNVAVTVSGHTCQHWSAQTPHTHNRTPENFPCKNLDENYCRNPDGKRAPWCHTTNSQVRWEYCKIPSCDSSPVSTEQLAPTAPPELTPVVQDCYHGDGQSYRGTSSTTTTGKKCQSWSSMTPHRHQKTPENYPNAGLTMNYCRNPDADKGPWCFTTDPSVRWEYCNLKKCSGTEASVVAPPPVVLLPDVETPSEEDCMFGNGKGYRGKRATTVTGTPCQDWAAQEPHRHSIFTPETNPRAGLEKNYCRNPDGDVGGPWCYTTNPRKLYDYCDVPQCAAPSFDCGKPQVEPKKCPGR

binding of clonally pure phage compared to BPTI display phage (plasmin [1]): superior to BPTI phage
Substance: SPI08: LACI-K1 derivative selected for plasmin binding, SEQ ID NO. 42 (MHSFCAFKADGGPCRARFERFFFNIFTRQCEEFIYGGCEGNQNRFESLEECKKMCTRD; Synthetically generated peptide)

Substance: MHSFCAFKAETGPCRGKFDRWFFNIFTRQCESFHYGGCKGNQNRFESLEECKKMCTRD (disulfide 5-55, 14-38, 30-51) [SPI43]
pKi (plasmin [2]; Ki for plasmin): < 8.40

Substance: MHSFCAFKADGGPCKGKFPRFFFNIFTRQCEEFIYGGCEGNQNRFESLEECKKMCTRD (disulfide 5-55, 14-38, 30-51) [SPI22]
pKd (plasmin [2]; Affinity KD): < 8.70

binding of clonally pure phage compared to BPTI display phage (plasmin [1]): superior to BPTI phage
Substance: SPI15: LACI-K1 derivative selected for plasmin binding, SEQ ID NO. 41 (Table 6: 90) (MHSFCAFKAESGPCRARFDRWFFNIFTRQCEEFIYGGCEGNQNRFESLEECKKMCTRD; Synthetically generated peptide)

pKi (plasmin [2]; 150 mM salt, read-out: Ki for plasmin): ~8.70
pKd (plasmin [2]; Table 4, plasmin, read-out: Affinity KD): 8.70
potency class for plasmin below the rank order of Table 8 (plasmin [2]; class words wrapped over r53-r54: Highly Superior / very potent / potent, order SPI11<BPTI<SPI23=SPI51<SPI47<QS4<SPI22<SPI54<SPI43): potent
Substance: QS4: LACI-K1 derivative that binds human plasmin, SEQ ID NO. 4 (MHSFCAFKADDGPCKARFERFFFNIFTRQCEQFYYGGCDGNQNRFESLEECKKMCTRD; Synthetically generated peptide)

Substance: MHSFCAFKADDGPCKARFERFFFNIFTRQCEQFTYGGCGGNQNRFESLEECKKMCTRD (disulfide 5-55, 14-38, 30-51) [NS4]
pKi (plasmin [2]; Ki for plasmin, 150 mM salt): ~8.70

Substance: Human APP-I: human Kunitz domain APP-I, SEQ ID NO. 39 (VREVCSEQAETGPCRAMISRWYFDVTEGKCAPFFYGGCGGNRNNFDTEEYCMAVCGSA; listed as Homo sapiens)
pKi (plasmin [3]; AUER88, SCHN86, DENN94a): 6.65
pKd (plasmin [3]; KIDO88): 10.12
pKd (plasmin [3]; literature values (APP-I: DENN94a)): 6.65

Substance: MHSFCAFKAETGPCRARFDRWFFNIFTRQCEEFIYGGCEGNQNRFESLEECKKMCTRD (disulfide 5-55, 14-38, 30-51) [SPI11]
pKd (plasmin [2]; Affinity KD): 10.06
pKi (plasmin [2]; Ki for plasmin): 10.06 and ~10.06
pKd (plasmin [2]; affinity for plasmin): > 10.00

Substance: MHSFCAFKADSGPCRARFDRWFFNIFTRQCTRFPYGGCGGNQNRFESLEECKKMCTRD (disulfide 5-55, 14-38, 30-51) [SPI54]
pKi (plasmin [2]; Ki for plasmin, 150 mM salt): < 8.40
